Data set [1] in a line: Evaluation of aggregability of protein by dynamic light scattering particle diameter. The class given is physicochemical. Particulars: wild-type 10 mg/mL, R82EK84E mutant 8.5 mg/mL. As to the method:
Protein solutions (each 20 μL) of wild-type UnaG protein (10 mg/mL) and R82EK84E mutated UnaG protein (8.5 mg/mL) were each supplied to Microtrac particle size analyzer MT3000II (Nikkiso Co., Ltd.), and the particle diameters were measured by a dynamic light scattering. The aggregability was evaluated by plotting frequency against particle diameter.

A further data set deals with Escherichia coli cells. The experiment in a line: Expression of recombinant UnaG protein in Escherichia coli, fluorescence observation. The format is cell-based. The note with it: blue light, UV transilluminator. The source says:
A DNA fragment including the sequence of full-length UnaG gene prepared above was ligated to the restriction enzyme sites, BamHI and EcoRI, of Escherichia coli expression vector […] (GE Healthcare) including a GST-tag sequence that can express the GST-fused protein in Escherichia coli and transformed into Escherichia coli strain DH5α for subcloning. Thus, a UnaG (apo form) expression vector (pGEX-2T-UnaG) for Escherichia coli was constructed.
The constructed expression vector (pGEX-2T-UnaG) was transformed into Escherichia coli strain BL21 (DE3). The transformant was cultured on a plate of an LB solid medium to obtain colonies. The resulting colonies were inoculated in 40 mL of an LB liquid medium and were cultured overnight at 37° C. Here, a glycerol stock of the resulting Escherichia coli solution was produced, and this glycerol stock was used as the recombinant (vector) for Escherichia coli expression in the experiments described below. The LB medium was scaled up to 400 mL using the culture solution, followed by culturing at 37° C. for 1 hr (A600≈1.0). […]
FIG. 1 includes diagrams showing expression of recombinant UnaG protein in Escherichia coli and mammalian cells. […] The diagram (c) includes a differential interference image and a fluorescence image by observation of mammalian cell HEK293T expressing recombinant UnaG protein under a fluorescence microscope. […]

Data set [2] is described as follows: Detection of unconjugated bilirubin in human serum by apo UnaG fluorescence. The note with it: apo UnaG added to 200-fold diluted human serum, room temperature, 527 nm. The protocol:
Blood (5 mL) was collected in a vacuum sealed blood collection tube (Neo-Tube, NIPRO) from a vein of the arm using a needle of 23G (Terumo Corporation) and a 5-mL cylinder (Terumo Corporation). The collected blood was shielded from light and was left to stand at room temperature for 30 min and was then centrifuged at a rotation speed of 3,000 rpm for 20 min (KUBOTA K-80) to collect about 2.5 mL of serum. The collected serum was cooled with ice while being shielded from light and was promptly subjected to measurement of bilirubin.
Apo UnaG was added to the serum diluted with PBS by 200-fold so as to give a final concentration of 0.5 μM, and 200 μL of the mixture was added to each well of a 96-well microplate (black, non-binding, Greiner Bio-One). Measurement of fluorescence was started immediately after the addition of samples to the plate. The fluorescence intensity was measured at room temperature at every 10 min for 1 hr at a fluorescence wavelength of 527 nm (excitation wavelength: 497 nm) using EnSpire (trademark) multi-mode plate reader (PerkinElmer Co., Ltd.). Each serum was measured using three wells, and the serum not mixed with apo UnaG protein was also measured as background. The net fluorescence intensity was determined by subtracting the intensity level of the background from the intensity level of the serum mixed with apo UnaG protein. […]

B1: UnaG: fluorescent polypeptide including the amino acid sequence of SEQ ID NO: 1, originally isolated from Japanese eel; fluoresces in the presence of bilirubin (protein, listed as Anguilla japonica)
chain: MVEKFVGTWKIADSHNFGEYLKAIGAPKELSDGGDATTPTLYISQKDGDKMTVKIENGPPTFLDTQVKFKLGEEFDEFPSDRRKGVKSVVNLVGEKLVYVQKWDGKETTYVREIKDGKLVVTLTMGDVVAVRSYRRATE
Turning to B1, in data set [1], the “particle diameter distribution (peaks)” value was “two peaks of different particle diameter distribution ranges”. Moreover, the “fluorescence of expressed protein in cells” value in the data set on Escherichia coli cells is recorded as “did not emit fluorescence”. Also, in data set [2], the “time stable fluorescence lasts” value was not below 1 h and the “time until stable fluorescence is generated” value is given as “about 10 min”.

The values above are taken from patent US9957308B2, “Method for detecting bilirubin using a fluorescent protein” (RIKEN, priority 2013, dated 2018).
